Experimental data as given in patent US20240255522A1 (published 2024).
Where no end group is shown, it is not given here.

Columns and labels:
[1] = target: HLA-DRB1*11:01 MHCII molecule (human); experiment: saturation binding ELISA
[2] = target: HLA-DRB1*09:01 MHCII molecule (human); experiment: saturation binding ELISA
[3] = target: HLA-DRB1*08:01 MHCII molecule (human); experiment: saturation binding ELISA
[4] = target: HLA-DRB1*15:01 MHCII molecule (human); experiment: saturation binding ELISA
[5] = target: HLA-DRB1*01:01 MHCII molecule (human); experiment: saturation binding ELISA
[6] = target: HLA-DRB1*04:01 MHCII molecule (human); experiment: saturation binding ELISA
[7] = target: HLA-DRB1*11:01 MHCII molecule (human); experiment: saturation binding ELISA; pH 5
[8] = target: HLA-DRB1*09:01 MHCII molecule (human); experiment: saturation binding ELISA; pH 5
[9] = target: HLA-DRB1*08:01 MHCII molecule (human); experiment: saturation binding ELISA; pH 5
[10] = target: HLA-DRB1*15:01 MHCII molecule (human); experiment: saturation binding ELISA; pH 5
[11] = target: HLA-DRB1*01:01 MHCII molecule (human); experiment: saturation binding ELISA; pH 5
[12] = target: HLA-DRB1*04:01 MHCII molecule (human); experiment: saturation binding ELISA; pH 5
[13] = target: HLA-DRB1*01:01 MHCII molecule (human); experiment: saturation binding ELISA; pH 5; second sample

PVSKMRMATPLLMQA (also: biotinylated, position not given here) [biotinylated high affinity huCLIP]
Kd [1]: 24.5 nM
Kd [2]: 510 nM
Kd [3]: 14.4 nM
Kd [4]: 109 nM
Kd [5]: 6.09 nM
Kd [6]: 183 nM
Kd [7]: 30.9 nM
Kd [8]: 380 nM
Kd [9]: 16.8 nM
Kd [10]: 87.9 nM
Kd [11]: 7.1 nM
Kd [12]: 200 nM
Kd [13]: 8.7 nM
